From US12202907B2, “Nucleic acids encoding and methods of producing proteins comprising antibody chains” (Innate Pharma, priority 2018, dated 2025)

Tests used:
[1] = molecular target: T1, human Ramos lymphoma cells (CD39) (Homo sapiens, UniProt P49961); assay: Antibody titration on Ramos cells by flow cytometry; format: binding; settings: qualitative
T1 construct: cells that endogenously express CD39 at their surface; host or cells: Ramos
T1 sequence (P49961 1-510): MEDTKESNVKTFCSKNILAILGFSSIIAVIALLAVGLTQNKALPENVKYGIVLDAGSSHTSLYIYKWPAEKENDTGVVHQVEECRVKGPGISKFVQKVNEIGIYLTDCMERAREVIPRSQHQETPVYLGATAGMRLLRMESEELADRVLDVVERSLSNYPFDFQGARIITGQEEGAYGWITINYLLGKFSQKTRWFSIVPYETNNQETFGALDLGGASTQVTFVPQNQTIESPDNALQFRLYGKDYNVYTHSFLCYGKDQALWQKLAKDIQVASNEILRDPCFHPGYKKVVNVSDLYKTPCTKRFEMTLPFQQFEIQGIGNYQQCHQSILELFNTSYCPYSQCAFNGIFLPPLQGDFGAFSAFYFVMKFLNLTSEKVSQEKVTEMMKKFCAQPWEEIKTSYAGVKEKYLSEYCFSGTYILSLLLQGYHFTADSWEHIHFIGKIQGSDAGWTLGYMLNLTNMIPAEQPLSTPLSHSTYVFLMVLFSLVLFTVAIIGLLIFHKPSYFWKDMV
Protocol: Antibody I-394 was tested in two repeated experiments for binding to CHO cells expressing human CD39, CHO cells expressing cynomolgus (Macaca fascicularis) CD39, CHO cells expressing murine CD39, and human Ramos lymphoma cells (ATCC™, reference CRL-1596). Cells were incubated with various concentration of unlabeled anti-CD39 antibody from 30 μg/ml to 5×10^−4 μg/ml, for 30 minutes at 4° C. After washes, cells were incubated with Goat anti-mouse H+L labeled secondary antibody for 30 min at 4° C.

[2] = molecular target: T2, Human CD39-L1 (NTPDase2, ENTPD2) (Homo sapiens, UniProt Q9Y5L3); assay: ELISA titration on CD39-L1; format: binding
T2 sequence (Q9Y5L3 1-472 isoform Q9Y5L3-2): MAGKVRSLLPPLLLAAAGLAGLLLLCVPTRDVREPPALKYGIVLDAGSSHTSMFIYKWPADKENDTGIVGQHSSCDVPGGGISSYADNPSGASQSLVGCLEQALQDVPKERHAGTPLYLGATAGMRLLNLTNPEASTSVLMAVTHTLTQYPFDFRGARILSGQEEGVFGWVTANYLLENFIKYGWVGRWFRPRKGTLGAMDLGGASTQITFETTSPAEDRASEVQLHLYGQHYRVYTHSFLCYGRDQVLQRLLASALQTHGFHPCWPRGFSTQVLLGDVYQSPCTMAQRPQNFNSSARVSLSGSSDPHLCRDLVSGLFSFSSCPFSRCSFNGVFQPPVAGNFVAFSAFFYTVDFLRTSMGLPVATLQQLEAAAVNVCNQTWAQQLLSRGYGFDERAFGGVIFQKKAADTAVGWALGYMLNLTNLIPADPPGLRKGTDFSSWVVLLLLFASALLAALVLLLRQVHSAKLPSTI
Protocol: (§1) Antibody I-394 was tested for binding to recombinant human CD39 isoforms (Rec-huCD39 isoforms) having amino acid sequences shown below were coated in 96-well plate in PBS 1X at 500 ng/ml or 1 μg/ml at 4° C. overnight. Wells were washed in TBS Tween® 20 (polysorbate 20), and further saturated 2H at RT in TBS Blocking buffer. Dose range concentration of primary antibody was incubated in TBS blocking buffer for 2 h at RT. Wells were washed in TBS Tween® 20 (polysorbate 20). […] Optical density was measured on Enspire™ at OD=450.

[3] = molecular target: T3, Human CD39-L2 (NTPDase6, ENTPD6) (Homo sapiens, UniProt O75354, K202E); assay: ELISA titration on CD39-L2; format: binding
T3 sequence (O75354 1-484 K202E): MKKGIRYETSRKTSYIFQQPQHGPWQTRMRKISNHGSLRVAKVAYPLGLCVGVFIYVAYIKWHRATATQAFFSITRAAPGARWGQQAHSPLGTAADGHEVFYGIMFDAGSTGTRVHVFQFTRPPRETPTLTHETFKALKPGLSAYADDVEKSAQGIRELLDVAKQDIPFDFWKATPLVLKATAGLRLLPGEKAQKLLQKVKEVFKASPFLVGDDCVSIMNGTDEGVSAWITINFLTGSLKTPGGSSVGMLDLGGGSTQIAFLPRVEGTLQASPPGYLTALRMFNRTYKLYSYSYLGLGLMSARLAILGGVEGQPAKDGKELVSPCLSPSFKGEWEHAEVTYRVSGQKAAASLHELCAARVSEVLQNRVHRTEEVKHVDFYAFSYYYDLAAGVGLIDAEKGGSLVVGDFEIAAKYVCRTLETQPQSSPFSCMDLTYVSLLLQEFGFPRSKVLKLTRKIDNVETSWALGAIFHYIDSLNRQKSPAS
Protocol: as §1

[4] = test system: allogenic CD4 T cells; assay: Mixed lymphocytes reaction (MLR) with ATP-activated DC; format: cell-based, human; settings: MoDC activated in presence of ATP and antibody
Protocol: Briefly, human monocytes were purified from human healthy blood and differentiated into MoDC in presence of GM-CSF and IL-4 during 6 days. Then MoDC were activated in presence of ATP (Sigma, 0.25-1 mM) during 24 hours and DC activation were assessed by analyzing CD80, CD83 and HLA-DR expression by flow cytometry. In some cases, MoDC were preincubated for 1 hour in presence of CD39 inhibitor: […] (Tocris, 250 μM), CD73 inhibitor: APCP (Tocris 50 μM), anti-CD39 blocking antibody I-394 or BY40 (for BY40 see WO2009/095478), or anti-CD73 blocking antibodies. LPS (Invivogen, 10 ng/ml) was used as positive control. To assess resulting effect of ATP-mediated DC activation on CD4 T cells activation, ATP-activated DC were washed and then incubated with allogenic CD4 T cells (ratio 1 MoDC/4 T cells) for a mixed lymphocytes reaction (MLR) during 5 days. T cells activation and proliferation were analyzed through CD25 expression and Cell Trace Violet dilution by flow cytometry (FIG. 8).
Antibodies were tested to assess their efficacy in reducing T cell suppression in the assay described in Example 12. […] T cells activation and proliferation were analyzed through CD25 expression and Cell Trace Violet dilution by flow cytometry.

binding to Ramos lymphoma cells [1]: bound
Substance: I-394: anti-CD39 antibody, VH SEQ ID NO: 6, VL SEQ ID NO: 7, human IgG1 Fc with L234A/L235E/G237A/A330S/P331S
binding to CD39-L1 in ELISA [2]: not to any of the isoforms CD39-L1, -L2, -L3 or -L4
binding to CD39-L2 in ELISA [3]: not to any of the isoforms CD39-L1, -L2, -L3 or -L4
T cells proliferation and activation in MLR (CD25, Cell Trace Violet dilution) [4]: resulted in higher T cells proliferation and activation
